The assay addresses T. brucei PNUTS with PTP tag, bloodstream form (T. brucei). Description: co-sedimentation; extracts of bloodstream form T. brucei expressing PNUTS-PTP and JBP3-HA or Wdr82-HA on 5-50% sucrose gradients, 38000 rpm 18 hours, fractions analysed by western blot.

Data on two substances can be found in PMC7055916.

As to “T. brucei JBP3 with 3x HA tag, bloodstream form (natural protein)”, the stoichiometry N came to 1. In the case of “T. brucei Wdr82 with 3x HA tag, bloodstream form (natural protein)”, the stoichiometry N was determined as 1.
